# Laboratory results reported in the supplement of paper PMC9170038.
# Test system: MS2 coat protein
# Test: apparent KD of MS2 coat protein; designed switch direction (-1 OFF switch, 1 ON switch): 1; higher = weaker reporter binding
# Procedure, shortened: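 Designed RNA switches with common flanks were made on Illumina chips by stalled E. coli RNA polymerase. Titration with SNAP-549-labelled MS2 coat protein doubled from 0.7 or 1.5 nM up to 3 µM. Apparent KD is each design's median over clusters after curve-fitting normalised fluorescence.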
# [1] = input ligand: microRNA oligo, concentration not stated
# [2] = Eterna round: R95, input ligand: FMN 200 uM
# [3] = Eterna round: R95, input ligand: microRNA oligo, concentration not stated
# [4] = Eterna round: R95, input ligand: none
Sequence,apparent KD of MS2 coat protein (input ligand: FMN 200 uM) [µM],apparent KD of MS2 coat protein [1] [µM],apparent KD of MS2 coat protein (input ligand: none) [µM],apparent KD of MS2 coat protein [2] [µM],apparent KD of MS2 coat protein [3] [µM],apparent KD of MS2 coat protein [4] [µM]
"GGUGCAAUUAACGCCUACAUGAGGAUCACCCAUGUAUGUAGGCAGGAUAUCGUUUGCAAAGCAAACGAGAAGGGCUGUAGUACC [Mat - Same State NG 3 - JL Mod - D40] (Eterna round: R96, puzzle: Same State NG 3)",0.0511,0.109,0.131,–,–,–
"AGGCUGAGUCGAGGAUAUGAUCUUCAUAUAAUAACAUGAGGAUCACCCAUGUAUAAUUACAUGGAUCAGAAGGCGACUCAGCCA [SSNG2/13-B1] (Eterna round: R96, puzzle: Same State NG 2)",0.0354,0.414,0.584,–,–,–
GUGGUGUAGAUACAGGAUAUGUUGCUCGUAACAUGAGGAUCACCCAUGUAUGUAUGAGAAUGAAUGCAGAAGGGUGCACACCACG [Mat - Same State 2 - Mod of UCT - D77] (puzzle: Same State 2),–,–,–,0.0138,0.106,0.159
"GUGGUCAGACAUGAGGAUCACCCAUGUGGAAUAAAUAAGGGACAGGAUAUGGAAUAUAGGAUAUACCAGAAGGGUUGGUUGGUG (Eterna round: R96, puzzle: Same State NG 3)",0.0862,0.0687,0.082,–,–,–
AUAUAACAUGAGGAUCACCCAUGUCUCUAAAGUCGAGGAUAUGGGCAGGUUAUAUCCGAACCAGAAGGCGGGUUAU [SS1 Teenbexe 8] (puzzle: Same State 1),–,–,–,0.177,0.123,0.146
UAUGAACAUGAGGAUCACCCAUGUGGAAAGGACACAGGAUAUCAUCUCGCACGUGCGAUAUGAGAAGGGUGAUGGU [Quedorinri] (puzzle: Same State 1),–,–,–,–,0.0963,–
CGUCCAGCCUGAGCUGGACAAAAGCAUGUACAUGAGGAUCACCCAUGUUCAUGUACAAGCUUUUUGCUCGUCUUAGG [salish99_208a_r3_074] (puzzle: Sensor for hsa-mir-208a),–,–,–,0.593,0.0201,0.744
"GCAACAGGGUGAGGAUAUCUAUGGACCGACCAUAGAGAAGGCACUGGAAACACAUGAGGAUCACCCAUGUGCCAAAGAACAGUA [Eternabot solution 9] (Eterna round: R96, puzzle: Same State NG 1)",0.0175,0.0224,0.0284,–,–,–
"UUCAAUGGGAUAGGAUAUCCUGCGGCGAGGCGUGGAGAAGGGUCAAGUACAUGAGGAUCACCCAUGUUUCGGAAAUAUUCCGAG [Eternabot solution 29] (Eterna round: R96, puzzle: Same State NG 1)",0.121,0.0415,0.125,–,–,–
"UGUACCUUCACAGGAUAUCAUGCGAAAAUUGCGUGAGAAGGGUGAAUACUGUCUUACUAAGAGCACAUGAGGAUCACCCAUGUA [SameState NG1 #58] (Eterna round: R96, puzzle: Same State NG 1)",0.269,0.198,0.296,–,–,–
"CUGACGUGAUCAGGAUAUUGUAAGACAAUGUUGCAAGAAGGGAUUAAUGAGCCCGAACAGACAUGAGGAUCACCCAUGUGUCAG [Eternabot solution 41] (Eterna round: R96, puzzle: Same State NG 1)",0.0695,0.0516,0.0676,–,–,–
GUAAAACAUGAGGAUCACCCAUGUCAACAAAGUCGAGGAUAUGGGCAAAUAAAAUAAGAACCAGAAGGCGAAUAAG [salish99_SS1_r3_009] (puzzle: Same State 1),–,–,–,0.044,0.703,1.29
"AUAUGAGGAGCAGGAUAUGCGAAGAAGAAAGAAGUAGAAGGGCUCAUGGGACGACAUGAGGAUCACCCAUGUACUUCCCGAUGA [AK SSNG1-V2-7] (Eterna round: R96, puzzle: Same State NG 1)",0.0246,0.0266,0.0377,–,–,–
"AGCUAUCGAAAACGAUAGCAAAGGCAUGUACAUGAGGAUCACCCAUGUCAUGUACAAGCUUUUUGCUCGUCUUAAAA [Zipper 23 - 3] (Eterna round: R96, puzzle: Sensor for hsa-mir-208a)",0.66,0.0141,0.44,–,–,–
"UUGCAGUGCGGGUAGGAUAUGUAGGGUGGUACAUGAGGAUCACCCAUGUAUCCACCCUUCGACCGGCAGAAGGGCCUGUCACCGC [Lexeis] (Eterna round: R96, puzzle: Same State 2)",0.0231,0.0112,0.0174,–,–,–
UUAAGCCACGGGCAGGAUAUGUAUUAAAAUACAUGAGGAUCACCCAUGUGCAGGUGUAACACCUGGCAGAAGGGCCAAUCGCGGC [Soondi - 4] (puzzle: Same State 2),–,–,–,0.0292,0.149,0.171

Sequence,apparent KD of MS2 coat protein (input ligand: FMN 200 uM) [µM],apparent KD of MS2 coat protein [1] [µM],apparent KD of MS2 coat protein (input ligand: none) [µM],apparent KD of MS2 coat protein [2] [µM],apparent KD of MS2 coat protein [3] [µM],apparent KD of MS2 coat protein [4] [µM]
"AUAUAACAUGAGGAUCACCCAUGUCUCUAAAGUCGAGGAUAUGGGCAGGUUAUAUCCGAACCAGAAGGCGGGUUAU [SS1 Teenbexe 8] (Eterna round: R96, puzzle: Same State 1)",1.02,0.287,0.554,–,–,–
"AAUUAAUUAAUACAUGAGGAUCACCCAUGUAAUUAUUAGAUCUAGGAUAUCAGCUCGAAUAGAGCUGAGAAGGAGAUCACAUGU [SSNG3/18-B1] (Eterna round: R96, puzzle: Same State NG 3)",–,0.0145,–,–,–,–
"GGUGGCGAAAGCGACAUGAGGAUCACCCAUGUCAUCGGAGGGCAGGAUAUCCGGCGAAAGCCGAAGGAGAAGGGUCGAAAAGAA [ssng3v2 b] (Eterna round: R96, puzzle: Same State NG 3)",0.0624,0.0258,0.0436,–,–,–
CGCCGACAUGAGGAUCACCCAUGUGAGCGACUCACAGGAUAUACGCGAUAACAAAGUCGCGUAGAAGGGUGCUCCU [Iscezaso] (puzzle: Same State 1),–,–,–,0.0234,0.0192,0.0233
"GCUAGAAAUAAAGCCAACAUGAGGAUCACCCAUGUAUGUUGGUAGGAUAUCGUUUGCAAAGCAAACGAGAAGGGCUAAUCUAGC [Mat - Same State NG 3 - JL Mod - D65] (Eterna round: R96, puzzle: Same State NG 3)",0.0764,0.0638,0.0698,–,–,–
"AAGCAGAGGCAAGGAUAUGUGAAGACCCAGCCUAGGCUGGGCACAUGAGGAUCACCCAUGUACAAACAGAAGGUGUAACCAGGC [Eternabot solution 18] (Eterna round: R96, puzzle: Same State NG 2)",0.0405,0.116,0.161,–,–,–
"CGCGAACAGGCAGGAUAUAUAGAGCCAAAUAUUGUAGAAGGGCCACGUGCGGGAAGAGAACACAUGAGGAUCACCCAUGUUCGA [Eternabot solution 5] (Eterna round: R96, puzzle: Same State NG 1)",0.0274,0.0279,0.0307,–,–,–
GACAAUCUAUCUGAGGAUAUCAUGAAAAAAACAUGAGGAUCACCCAUGUGCAGGAAAACUGCAUAUGAGAAGGCAGAUAGAUUGA [salish99_SS2_r3_009] (puzzle: Same State 2),–,–,–,0.0197,0.155,1.19
"ACAUGAGAGAAAGGAUAUCAUGUACCUACAUGUGACAUGAGGAUCACCCAUGUGGUAAGUAUGAGUGAGAAGGUUCAGAUAUGU [Equivalence 34 - Jieux - Same State NG 2] (Eterna round: R96, puzzle: Same State NG 2)",0.0444,0.298,0.448,–,–,–
UAGAGAGGAAGCGAGGAUAUCGUGUUAGGUACAUGAGGAUCACCCAUGUUUUAGGUAGAGGUAGGCGAGAAGGCGCAGGAGAAGA [JR_SS2_Sub090] (puzzle: Same State 2),–,–,–,0.0258,0.0329,0.034
"UCUUGGUUUUUGCUCGUUUUUUGUGUUGAACAUGAGGAUCACCCAUGUAUUGUACGGUCCAGUUUGAUAAUGGUCCG [JMF 34] (Eterna round: R96, puzzle: Sensor for hsa-mir-208a)",0.0352,0.0133,0.0402,–,–,–
UGGUAACAUGAGGAUCACCCAUGUCAAAUGAAUCGAGGAUAUGGGAAGGAAGAAGAGAAACUAGAAGGCGAAGUUG [Altered State 1-5 - Jieux - Same State 1] (puzzle: Same State 1),–,–,–,0.089,0.101,0.127
"GCCAACGCAUGAGGAUAUGGCACCUUAUUGGUGCCAGAAGGCAUGUCUAUUGACAUGAGGAUCACCCAUGUAUUAUAGUUGGCA [Fiskers NG1ss - 15] (Eterna round: R96, puzzle: Same State NG 1)",0.114,0.369,0.882,–,–,–
"ACAUGAGAUCUAGGAUAUAUAGUACCUACAUGUGACAUGAGGAUCACCCAUGUGGUAAGUAUGACAUAGAAGGAGAAGAUAUGU [Equivalance 96 - Jieux - Same State NG 2] (Eterna round: R96, puzzle: Same State NG 2)",0.0372,0.0509,0.0555,–,–,–
"GGAUGAUUGACAGGAUAUCAUUUGUAAAUUGGUUGAGAAGGGUCGAUUACUUACACGACCUGUUACAUGAGGAUCACCCAUGUU [SameState NG1 #3] (Eterna round: R96, puzzle: Same State NG 1)",0.0349,0.0205,0.031,–,–,–
